Data on four molecules can be found in patent US20100047253A1 (Amgen, published 2010).

“And” between values parts separate entries of the source, which are not always exact repeats. Equal values may be shown once. Bounds are passed on as bounds.

Assay [1] addresses T1, human IL-13 (source not stated for the assay) (human, UniProt P35225 35-146, limits assumed). As to the kind of experiment: cell-based or functional assay.
The target of another assay is T2, mouse IL-13 (mouse, UniProt P20109 22-131, limits assumed).
T2 construct: also called murine IL-13
T2 sequence (looked up): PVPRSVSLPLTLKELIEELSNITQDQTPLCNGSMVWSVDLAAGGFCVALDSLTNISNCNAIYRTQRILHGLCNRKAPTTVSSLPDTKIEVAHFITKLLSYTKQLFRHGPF
As to the kind of experiment: epitope mapping with mouse IL-13 chimeric molecules (ELISA). On the technique in general: An ELISA detects its analyte on a solid surface through an enzyme-linked reagent.

Assay [2] concerns the target T3, Human IL-13-Mouse IL-13 Helix D (human IL-13 with mouse Helix D).
T3 construct: Expressed and secreted chimeric protein; also called Mo HelixD
T3 chain: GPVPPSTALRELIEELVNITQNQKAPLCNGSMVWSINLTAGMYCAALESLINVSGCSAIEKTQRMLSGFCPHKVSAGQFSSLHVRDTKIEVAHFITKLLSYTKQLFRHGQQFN
As to the kind of experiment: ELISA on secreted IL-13 chimeric proteins.

Assay [3] deals with T4, Human IL-13-Mouse IL-13 Helix B (human IL-13 with mouse Helix B, UniProt P35225 35-146, limits assumed).
T4 construct: Expressed and secreted chimeric protein; also called Mo HelixB
T4 chain: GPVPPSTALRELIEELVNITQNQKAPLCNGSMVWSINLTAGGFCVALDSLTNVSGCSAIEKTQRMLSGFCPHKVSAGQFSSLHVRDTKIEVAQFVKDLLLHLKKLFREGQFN
As to the kind of experiment: ELISA on secreted IL-13 chimeric proteins.

The target of assay [4] is T5, Human IL-13-Mouse IL-13 Helix C (human IL-13 with mouse Helix C, UniProt P35225 35-146, limits assumed).
T5 construct: Expressed and secreted chimeric protein; also called Mo HelixC
T5 chain: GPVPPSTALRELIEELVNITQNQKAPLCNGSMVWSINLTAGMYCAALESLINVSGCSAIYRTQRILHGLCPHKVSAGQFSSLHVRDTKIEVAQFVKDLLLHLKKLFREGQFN
Nature of the assay: ELISA on secreted IL-13 chimeric proteins.

For assay [5], the target named is T6, Recombinant Human IL-13 (R & D 213-IL-005) (human, UniProt P35225 35-146).
T6 construct: also called IL-13 antigen (R&D Systems)
As to the kind of experiment: SPR (Biacore 2000), mAb captured on goat anti-human surface, IL-13 (R&D) injected, 1:1 model. A general note: SPR reads the build-up and loss of mass on a sensor chip optically.

The target of another assay is T7, 693 phage.
T7 peptide: YKIGEPHKDTYM
Nature of the assay: Panning of mAb 693 against a 12-mer random peptide library expressed on phage, two rounds.

Assay [6] addresses T1, human IL-13 (source not stated for the …). As to the kind of experiment: cell-based or functional assay. This is another data set of the same source.
Another assay concerns the target T8, native macaque IL-13 (macaque monkey).
T8 construct: also called macaque monkey IL-13
Nature of the assay: KinExA, equilibrium in solution. For orientation: Kinetic exclusion samples the free partner from a solution-phase mixture.

The target of assay [7] is T9, native human IL-13 (human, UniProt P35225 35-146, limits assumed).
T9 construct: also called hIL-13
As to the kind of experiment: KinExA; KD from the equilibrium experiments, printed in the kinetic table (injection method row).

Assay [8] deals with T10, Human IL-13-rabbit Fc fusion protein (human IL-13 fused to rabbit Fc).
T10 construct: also called IL-13-RbFc; IL-13 Rb Fc
Nature of the assay: ELISA on plates coated with IL-13RbFc, detection with rabbit anti Hu IgG Fc HRP (paragraph 267 to paragraph 269).

Assay [9] concerns the target T9, native human IL-13. Nature of the assay: KinExA, equilibrium in solution.
Assay [10] has as its target T9, native human IL-13. Nature of the assay: KinExA kinetic, injection method.
The target of the next assay is marmoset IL-13 (marmoset, UniProt A0A8I3WT33 35-145). Nature of the assay: KinExA, n-curve analysis.
For assay [11], the target named is T1, human IL-13 (source not stated for the …). Nature of the assay: cell-based or functional assay. This is another data set of the same source.
Assay [12] has as its target T9, native human IL-13. Nature of the assay: KinExA kinetic, injection method; koff calculated from kon and KD.
Assay [13] deals with T4, Human IL-13-Mouse IL-13 Helix B. Nature of the assay: ELISA on secreted IL-13 chimeric proteins; '*' denotes that the binding was weak in the sandwich ELISA.
Assay [14] addresses T9, native human IL-13. As to the kind of experiment: KinExA kinetic, direct method; koff calculated from kon and KD.
For assay [15], the target named is T9, native human IL-13. Nature of the assay: KinExA; KD from the equilibrium experiments, printed in the kinetic table (direct method row); KinExA kinetic, direct method row; KD taken from the equilibrium experiments.
Assay [16] deals with T6, Recombinant Human IL-13 (R & D …). Nature of the assay: SPR (Biacore 2000) high resolution, mAb captured on goat anti-human Fc pAb, IL-13 (R&D Systems) 12.6-0.394 nM, 23 C, global 1:1 fit.
Assay [17] concerns the target T9, native human IL-13. As to the kind of experiment: KinExA kinetic, direct method.

T10 sequence (chain, as listed by the source limits assumed): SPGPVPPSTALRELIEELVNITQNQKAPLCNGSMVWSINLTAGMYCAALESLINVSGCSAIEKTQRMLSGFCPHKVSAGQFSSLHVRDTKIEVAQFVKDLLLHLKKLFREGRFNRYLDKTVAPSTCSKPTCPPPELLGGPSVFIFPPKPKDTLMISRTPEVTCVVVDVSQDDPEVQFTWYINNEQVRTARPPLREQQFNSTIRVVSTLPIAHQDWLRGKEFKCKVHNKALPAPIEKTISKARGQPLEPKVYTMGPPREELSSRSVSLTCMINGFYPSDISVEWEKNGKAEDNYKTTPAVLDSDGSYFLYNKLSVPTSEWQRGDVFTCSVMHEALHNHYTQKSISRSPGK
Chain of marmoset IL-13 (A0A8I3WT33 entry or part of it): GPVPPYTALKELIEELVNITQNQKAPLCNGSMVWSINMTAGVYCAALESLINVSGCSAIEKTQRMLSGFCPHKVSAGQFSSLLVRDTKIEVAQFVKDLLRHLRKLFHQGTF
T8 sequence (Q864V6 19-132): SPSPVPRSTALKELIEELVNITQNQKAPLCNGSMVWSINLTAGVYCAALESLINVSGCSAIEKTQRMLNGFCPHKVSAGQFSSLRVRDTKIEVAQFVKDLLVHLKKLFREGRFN

B1: mAb 785 (antibody, V domains shown)
VH: not shown
VL: SYVLTQPPSVSVAPGQTARITCGGNNIGNKIVHWYQQKPGQAPVLVVYDDSDRPSGIPERFSGSNSGNTATLTISRVEAGDEADYYCQVWDSSSDHVVFGGGTKLTVLG
As for B1, in assay [1], the “IC50, IL-13 induced eotaxin release, Average” value (“IC50 … Average” below) was determined as 176 pM; the “IC50, IL-13 induced eotaxin release, n = 1” value (shortened to “IC50 … n = 1”) was 223 pM; the “IC50, IL-13 induced eotaxin release, n = 2” value (shortened to “IC50 … n = 2”) amounted to 144 pM; the “IC50, IL-13 induced eotaxin release, n = 3” value (shortened to “IC50 … n = 3”) stood at 160 pM. The binding result with mouse IL-13 is on record as “no binding”. For the same molecule, the binding result in [2] is on record as “no binding”. Moreover, the binding result in [3] is listed as “binds”. In assay [4], the binding result was “binds”.

B2: mAb 693 (antibody, V domains shown)
VH: QVQLQESGPGLVKPSETLSLTCSVSGGSISSYYWSWIRQPAGKGLEWIGRIYMTGRTNYNSSLKSRVTMSIDTSKNQLSLKLSFMTAADTAVYYCARESGSSYSYDYWGQGTLVTVSS
VL: SYVLTQPPSVSVAPGQTARITCGGNNIGSKGVHWYQQKPGQAPVLVVYDDSDRPSGIPERFSGSNSGNTATLTISRVEAGDEADYYCQVWVSSSDHHVVFGGGTKLTVV
notes: also called sc693
In general, Kd refers to the constant that tells how readily two partners part at equilibrium. One may read the koff as the first-order rate constant of dissociation. The kon is the second-order rate constant of association. For B2, in assay [1], the “IC50 … Average” value is 54 pM; the “IC50 … n = 1” value amounted to 38 pM; the “IC50 … n = 2” value turned out to be 69 pM; the “IC50 … n = 3” value stood at 53 pM. Further, the binding result in the assay with mouse IL-13 was “no binding”. In assay [5], the Kd was 189 pM and 109 pM; the koff was 0.00038 s⁻¹ and 0.00027 s⁻¹; the kon was 2e+06 M⁻¹ s⁻¹ and 2.5e+06 M⁻¹ s⁻¹. Also, the binding result in [2] is recorded as “no binding”. Further, the binding result in assay [3] is “binds”. Also, the binding result in [4] is on record as “binds”. In addition, in the assay with 693 phage, the binding result is listed as “binds”.

B3: mAb 731 (antibody, V domains shown)
VH: EVQLLESGGGLVQPGGSLRLSCAASGFTFSSYAMSWVRQAPGKGLEWVSAFSGSGGSTYYADSVKGRFTISRDNSKNTLYLQMNSLRAEDTAVYYCVQDGLGPYFYNYGMDVWGQGTTVTVSS
VL: SYELTQPPSVSVSPGQTASITCSGDKLGDKYACWFQQKPGQSPVLVIYHDSKRPSGIPERFSGSNSGDTATLTISGTQAMDEADYYCQAWDSSTYVFGTGTKVTVLG
notes: also called sc731
For B3, the “EC50, HDLM-2 proliferation assay (3H-thymidine)” value in [6] turned out to be 180 pM. Besides, in assay [6], the “EC50, L-1236 proliferation assay (3H-thymidine)” value was determined as 5.2 pM. Moreover, in assay [6], the “IC50, IL-13-induced CD23 expression on whole blood B cells (FACS)” value is 870 pM. Further, the “IC50 … Average” value in [1] turned out to be 16 pM. The “IC50 … n = 1” value in assay [1] worked out at 11 pM. The “IC50 … n = 2” value in assay [1] is 19 pM. The “IC50 … n = 3” value in [1] amounted to 17 pM. The binding result in the assay with mouse IL-13 is on record as “no binding”; in assay [8] it was “binds”; in assay [4], “no binding”; in assay [13] it was “binds”. Moreover, the Kd in the assay with native macaque IL-13 is 1600 pM; with native human IL-13 [7], 8.9 pM; in [5] it was 9 pM; in the assay with native human IL-13 [9] it was 8.9 pM; in the assay with marmoset IL-13 it was less than 7 pM. In addition, the koff in assay [5] is 3.5e-05 s⁻¹; in the assay with native human IL-13 [12], 4.2e-05 s⁻¹. Further, the kon in assay [5] was 3.9e+06 M⁻¹ s⁻¹; in the assay with native human IL-13 [10], 4.7e+06 M⁻¹ s⁻¹. The “IC50, eotaxin production by HDFa cells, 300 pM IL-13” value in assay [11] amounted to 28 pM. Also, in assay [11], the “IC50, eotaxin production by HDFa cells, 600 pM IL-13” value amounted to 56 pM.

B4: mAb 623 (antibody, V domains shown)
VH: EVQLVESGGGLVKPGGSLRLSCAASGFTFSNAWMSWVRQAPGKGLEWVGRIRSEIDGGTTNYAAPVKGRFTISRDDSKNTLYLQMNSLKTEDTAVYYCATDQVGAYYGDYYGMDVWGQGTTVTVSS
VL: SYELTQPPSVSVSPGQTARITCSGDALPEKYAYWYQQKSGQAPVLVIYEDSKRPSGIPERFSGSSSGTMATLTISGAQVEDEADYYCHSTDSSGNHGVFGGGTKLTVLG
notes: also called sc623
Regarding B4, the “EC50, HDLM-2 proliferation assay (3H-thymidine)” value in assay [6] turned out to be 4500 pM. Moreover, the “EC50, L-1236 proliferation assay (3H-thymidine)” value in [6] came to 390 pM. For the same molecule, the “IC50, IL-13-induced CD23 expression on whole blood B cells (FACS)” value in [6] was 6200 pM. In addition, the “IC50 … Average” value in assay [1] came to 36 pM. Further, the “IC50 … n = 1” value in assay [1] is 31 pM. Also, the “IC50 … n = 2” value in [1] is 40 pM. Also, the “IC50 … n = 3” value in assay [1] came to 35 pM. Besides, the koff was 0.00027 s⁻¹ with native human IL-13 [14], 0.00025 s⁻¹ in assay [5] and 0.00036 s⁻¹ in the assay with native human IL-13 [12]. In addition, the Kd with native human IL-13 [15] came out at 24 pM; in the assay with native macaque IL-13 it was 37 pM; in the assay with native human IL-13 [7] it was 24 pM; in assay [5] it was 52 pM; with native human IL-13 [9], 24 pM; in assay [16] it was 34 pM. This molecule also came in with a Kd with marmoset IL-13 of 403 pM. The binding result in the assay with mouse IL-13 is listed as “no binding”; in [8], “binds”; in [3], “binds”; in assay [4], “binds”. The kon in assay [5] came to 4.9e+06 M⁻¹ s⁻¹; with native human IL-13 [10], 1.5e+07 M⁻¹ s⁻¹; in assay [16], 7.3e+06 M⁻¹ s⁻¹; with native human IL-13 [17] it was 1.1e+07 M⁻¹ s⁻¹. The “IC50, eotaxin production by HDFa cells, 300 pM IL-13” value in assay [11] was determined as 56 pM. For the same molecule, the “IC50, eotaxin production by HDFa cells, 600 pM IL-13” value in assay [11] was 113 pM.
